Data published in the supplement of paper PMC9732359.
± gives the uncertainty stated by the source.

Assay: protein stability index of a GFP-peptide fusion (yeast GPS) (PSI 1-4); higher = more stable; sorted into four equal gates, so the index is relative within each strain
How it was run: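 Plasmids isolated from each sorting gate were PCR-amplified and Illumina-sequenced, and barcodes assigned the reads to strains. The gates, four of equal size, were set by GFP/Cherry fluorescence ratio on mid-log cultures in leucine-free medium. These cultures were yeast carrying a pooled library of tiled 17-residue yeast protein peptides fused downstream of GFP on a plasmid that also expresses Cherry. The protein stability index is the sum of every gate's read frequency times its gate number.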

| Sequence | protein stability index (doa10∆) | protein stability index (pdr5∆) | protein stability index (san1∆) | protein stability index (ubr1∆) |
| --- | --- | --- | --- | --- |
| KDQYVPEVSALDLSRSN [RPS17A] | 2.16 ± 0.14 | 2.2 ± 0.1 | 2.02 ± 0.12 | 2.2 ± 0.065 |
| KDTPFTIYDGEAVAKYI [PRE5] | 2.69 ± 0.073 | 2.97 ± 0.062 | 3.13 ± 0.089 | 3.12 ± 0.05 |
| KEASQEDDNNNVEKPSS [YLR335W/NUP2] | 3.11 ± 0.088 | 3.22 ± 0.071 | 3.06 ± 0.053 | 3.18 ± 0.066 |
| KEDSTIQDSNGDVKNME [SWI3] | 3.09 ± 0.11 | 3.38 ± 0.087 | 2.71 ± 0.093 | 3.17 ± 0.058 |
| KEEISDQKPIEHIKEGS [SWI3] | 2.96 ± 0.053 | 2.82 ± 0.051 | 2.88 ± 0.063 | 3 ± 0.04 |
| KEHAPYTDELEEDVYLD [FAS2] |  | 3.48 ± 0.27 |  | 3.04 ± 0.26 |
| KEHEPCIIFMDEVDAIG [RPT4] | 1.85 ± 0.049 | 1.92 ± 0.059 | 1.79 ± 0.12 | 1.98 ± 0.072 |
| KEIKTNEYVIKTPVFTT [YMR129W/POM152] | 2.1 ± 0.072 | 1.98 ± 0.056 | 1.88 ± 0.084 | 1.94 ± 0.042 |
| KEISARRYKLLTATPNS [POP1] | 2.1 ± 0.051 | 2.45 ± 0.061 | 2.32 ± 0.06 | 2.5 ± 0.051 |
| KEKAPTIIFIDELDAIG [RPT5] | 2.57 ± 0.068 | 2.35 ± 0.041 | 1.85 ± 0.11 | 2.4 ± 0.052 |
| KEKIEKLSKSATESIKN [SMC1] | 3.28 ± 0.12 | 2.99 ± 0.21 | 2.97 ± 0.079 | 3.07 ± 0.072 |
| KEKLTVQDCRYSLASVT [POP1] | 2.69 ± 0.039 | 2.62 ± 0.043 | 2.35 ± 0.043 | 2.46 ± 0.035 |
| KEPVALIETVRQMKDVN [RPN2] | 3.36 ± 0.059 | 3.41 ± 0.067 | 3.15 ± 0.051 | 3.31 ± 0.041 |
| KERSIVVGRTTRSNPPF [REC8] | 2.7 ± 0.055 | 2.7 ± 0.057 | 2.57 ± 0.081 | 2.65 ± 0.065 |
| KESIVLPTVGFDFIKDN [YOR098C/NUP1] | 2.39 ± 0.14 | 2.65 ± 0.11 | 3.05 ± 0.16 | 2.83 ± 0.07 |
| KESPWKILMYQYNIPPE [RRP6] | 2.23 ± 0.07 | 2.01 ± 0.066 | 1.42 ± 0.11 | 1.57 ± 0.055 |
| KETAPVIDTLAAGYGKI [RPL28] | 1.96 ± 0.088 | 2.71 ± 0.12 | 2.13 ± 0.21 | 2.53 ± 0.083 |
| KETVEIGIVDYEAGASH [FAS1] |  | 2.92 ± 0.19 |  | 3.06 ± 0.14 |
| KETWLHELSSSHTSLVK [SRB8] | 1.81 ± 0.05 | 2.04 ± 0.056 | 1.87 ± 0.083 | 1.8 ± 0.055 |
| KFLQVMQKHGYIGEFEY [RPS22A] | 2.68 ± 0.063 | 2.27 ± 0.059 | 2.11 ± 0.092 | 2.6 ± 0.054 |
| KFNAAPEENATEGPSDK [SNF12] | 3.1 ± 0.16 | 3.58 ± 0.14 | 3.26 ± 0.081 | 3.26 ± 0.098 |
| KFNELVKLMKNITDYET [BRR2] | 1.11 ± 0.042 | 1.21 ± 0.06 | 1.21 ± 0.14 | 1.3 ± 0.056 |
| KFQETLLRQKIEQCKHP [ISW2] | 1.34 ± 0.068 | 1.47 ± 0.068 | 1.24 ± 0.13 | 1.21 ± 0.063 |
| KGAATGKGRQSAKAELE [PRE10] | 1.24 ± 0.088 | 1.38 ± 0.079 | 1.45 ± 0.29 | 1.22 ± 0.064 |
| KGDLRRGFIKSEGSGSS [RPC53] | 3.43 ± 0.14 | 3.37 ± 0.1 | 3.31 ± 0.07 | 3.48 ± 0.15 |
| KGEEAKLDSKKTVPFQV [SSN3] | 3.27 ± 0.087 | 3.37 ± 0.055 | 3.2 ± 0.097 | 3.23 ± 0.066 |
| KGEMKGSAITGPVGKEC [RPL23A] | 3.19 ± 0.065 | 2.98 ± 0.065 | 3 ± 0.051 | 3 ± 0.044 |

| Sequence | protein stability index (doa10∆) | protein stability index (pdr5∆) | protein stability index (san1∆) | protein stability index (ubr1∆) |
| --- | --- | --- | --- | --- |
| KGIDSVVRRRFRGNISQ [RPL32] | 2.82 ± 0.14 | 2.94 ± 0.26 |  | 2.89 ± 0.12 |
| KGKTPKNAAESSYMGKH [PRP28] | 3.18 ± 0.12 | 3.22 ± 0.14 | 2.86 ± 0.16 | 3.33 ± 0.085 |
| KGLIKVNGSPITLVEPE [RPS16A] | 3.09 ± 0.095 | 3.42 ± 0.13 | 3.06 ± 0.082 | 3.24 ± 0.11 |
| KGLVSQQLDSFNQFVDY [RPB2] | 2.64 ± 0.077 | 2.52 ± 0.1 | 2.41 ± 0.078 | 2.6 ± 0.066 |
| KHEEIDTKNLYVIKALQ [RPS10A] | 1.6 ± 0.085 | 2.02 ± 0.078 | 1.64 ± 0.12 | 1.46 ± 0.077 |
| KHLWDQKSLAALKKSRS [RPC17] | 2.75 ± 0.12 | 2.97 ± 0.072 | 2.92 ± 0.083 | 2.81 ± 0.07 |
| KIAHGTTTLAFRFQGGI [PRE2] | 3.03 ± 0.095 | 3.11 ± 0.073 | 2.84 ± 0.067 | 3.1 ± 0.069 |
| KIDKPIRTQVNTGGESV [RGR1] | 2.4 ± 0.06 | 2.4 ± 0.044 | 2.32 ± 0.052 | 2.25 ± 0.036 |
| KIDSHVVLSFSGLNADS [PRE6] | 1.8 ± 0.062 | 1.72 ± 0.069 | 2.48 ± 0.073 | 2.19 ± 0.054 |
| KIESLAGGGESDSALIL [UBP6] | 3.25 ± 0.18 |  | 3.49 ± 0.11 | 3.12 ± 0.25 |
| KIHQQLLFKARLQQQQA [GAL11] | 1.3 ± 0.088 | 1.26 ± 0.089 | 1.25 ± 0.15 | 1.33 ± 0.069 |
| KIIELMNKIFTIFKSGE [YML103C/NUP188] | 3.01 ± 0.08 | 2.22 ± 0.083 | 1.79 ± 0.11 | 2.8 ± 0.12 |
| KILEQFEYVLYPSKTLK [FAS2] | 3.01 ± 0.078 | 2.93 ± 0.069 | 2.97 ± 0.077 | 3.15 ± 0.064 |
| KILPTDIQLKNLFPLKP [SRP68] | 2.41 ± 0.059 | 2.63 ± 0.046 | 2.55 ± 0.043 | 2.53 ± 0.059 |
| KINSWDQVLVKGGEQIS [YJL041W/NSP1] | 2.04 ± 0.087 | 2.56 ± 0.085 | 3.29 ± 0.087 | 2.21 ± 0.073 |
| KIPAVEYFGGESPVDVQ [FAS1] | 2.97 ± 0.13 | 3.4 ± 0.099 | 3.19 ± 0.1 | 3.09 ± 0.092 |
| KIRRAARDLLTRDEKDP [RPS9A] | 2.33 ± 0.08 | 2.49 ± 0.065 | 2.3 ± 0.093 | 2.58 ± 0.078 |
| KISEGSAKPTFSFSKSE [YOR098C/NUP1] | 1.75 ± 0.11 | 1.92 ± 0.17 | 2.11 ± 0.2 | 1.77 ± 0.11 |
| KISFNLRLKLFLYEILS [SRB8] | 1.22 ± 0.066 | 1.26 ± 0.063 | 1.24 ± 0.092 | 1.17 ± 0.048 |
| KIVEIDRHIGCAMSGLT [PUP2] | 1.82 ± 0.07 | 2.32 ± 0.091 | 2 ± 0.14 | 2.17 ± 0.06 |
| KIWSVKDGSNPRTLIGH [RPN14] | 3.12 ± 0.11 | 3.01 ± 0.12 | 2.95 ± 0.14 | 2.96 ± 0.12 |
| KKAEKAARKAEKAKSAG [RPL24A] | 3.34 ± 0.066 | 3.32 ± 0.053 | 3.53 ± 0.046 | 3.48 ± 0.055 |
| KKAVKELYEVDVLKVNT [RPL25] | 3.01 ± 0.069 | 3.09 ± 0.073 | 3.1 ± 0.037 | 3.13 ± 0.049 |
| KKDSKPAFSFGISNGSE [YLR335W/NUP2] | 3.16 ± 0.067 | 3.12 ± 0.069 | 3.1 ± 0.044 | 3.15 ± 0.058 |
| KKGESEKDASGKPSFVF [YOR098C/NUP1] | 2.19 ± 0.066 | 2.32 ± 0.1 | 2.32 ± 0.15 | 2.23 ± 0.073 |
| KKINAKEKLIGWYHSGP [RPN8] | 2.91 ± 0.085 | 3.13 ± 0.096 | 3.33 ± 0.052 | 3.13 ± 0.06 |
